Results: patent publication US20250136713A1 (DENALI THERAPEUTICS, published 2025)
Numbering of substitutions follows the chain as printed. Blank lines part the entries; values can stand above or below the binder they belong to.

What was measured:
[1] = target: T1, recombinant HER2 extracellular domain (ECD) (human, UniProt P04626 23-652); assay: SPR (Biacore 8K), antibody captured by anti-human Fab, HER2 ECD injected, 1:1 fit
T1 construct: extracellular domain; also called HER2 ECD
Description: (§1) HER2 extracellular domain (ECD) binding affinities of engineered anti-HER2 antibodies were measured by SPR using a Biacore 8K instrument. Antibodies were captured on Biacore™ Series S CM5 sensor chips immobilized with mouse anti-human Fab (human Fab capture kit from GE Healthcare) followed by injections of serial 3-fold dilutions of recombinant HER2 ECD at a flow rate of 30 μL/min. Each sample was analyzed using a 3-minute association followed by a 10-minute dissociation. After each injection, the sensor chip was regenerated using a 50 mM glycine pH2.0 regeneration buffer. A 1:1 Languir model of simultaneous fitting of kₒₙ and koff was used for kinetics analysis.

[2] = target: T1, recombinant HER2 extracellular domain …; assay: as above; remark: listed apart in the source
Description: as §1

[3] = target: T1, recombinant HER2 extracellular domain …; assay: as above; remark: listed apart in the source
Description: as §1

[4] = target: T1, recombinant HER2 extracellular domain …; assay: SPR (Biacore 8K), antibody captured by anti-human Fab, HER2 ECD injected, 1:1 fit; LC SEQ ID NO: 87 paired with Anti-HER2_D2 heavy chain control (SEQ ID NO: 92)
Description: as §1

[5] = target: T1, recombinant HER2 extracellular domain …; assay: SPR (Biacore 8K), antibody captured by anti-human Fab, HER2 ECD injected

- Kd [3]: 6.2 nM
B7: SEQ ID NO: 10 light chain paired with anti-HER2_D2 heavy chain comprising the VH region of SEQ ID NO: 2 (antibody, V domains shown)
VH: EVQLVESGGGLVQPGGSLRLSCAASGFTFTDYTMDWVRQAPGKGLEWVADVNPNSGGSIYNQRFKGRFTLSVDRSKNTLYLQMNSLRAEDTAVYYCARNLGPLFYFDYWGQGTLVTVSS
VL: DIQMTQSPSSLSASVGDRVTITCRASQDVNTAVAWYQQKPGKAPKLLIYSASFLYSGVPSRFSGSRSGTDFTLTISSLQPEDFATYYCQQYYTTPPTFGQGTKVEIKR

- Kd [2]: 22.1 nM
B11: Anti-HER2_D2 heavy chain comprising the VH region of SEQ ID NO: 63 paired with Anti-HER2_D4 light chain control (SEQ ID NO: 87) (antibody, V domains shown)
VH: B7 VH with T28H, L103S
VL: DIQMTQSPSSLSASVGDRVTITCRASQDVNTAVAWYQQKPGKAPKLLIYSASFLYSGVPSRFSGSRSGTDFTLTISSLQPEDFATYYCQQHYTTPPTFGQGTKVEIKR

- Kd [3]: 2.1 nM
B13: SEQ ID NO: 10 light chain paired with anti-HER2_D2 heavy chain comprising the VH region of SEQ ID NO: 3 (antibody, V domains shown)
VH: B7 VH with G57Q
VL: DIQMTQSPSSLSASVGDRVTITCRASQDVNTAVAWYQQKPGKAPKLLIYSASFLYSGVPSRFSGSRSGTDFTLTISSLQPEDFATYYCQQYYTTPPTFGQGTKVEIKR

- Kd [2]: 32.3 nM
B14: Anti-HER2_D2 heavy chain comprising the VH region of SEQ ID NO: 66 paired with Anti-HER2_D4 light chain control (SEQ ID NO: 87) (antibody, V domains shown)
VH: B7 VH with Q62T, L103S
VL: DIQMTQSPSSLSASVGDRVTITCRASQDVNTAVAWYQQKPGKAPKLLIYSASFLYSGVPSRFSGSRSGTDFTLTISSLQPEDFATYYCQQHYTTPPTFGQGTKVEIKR

- Kd [2]: 21 nM
B17: Anti-HER2_D2 heavy chain comprising the VH region of SEQ ID NO: 64 paired with Anti-HER2_D4 light chain control (SEQ ID NO: 87) (antibody, V domains shown)
VH: B7 VH with Q62R, L103S
VL: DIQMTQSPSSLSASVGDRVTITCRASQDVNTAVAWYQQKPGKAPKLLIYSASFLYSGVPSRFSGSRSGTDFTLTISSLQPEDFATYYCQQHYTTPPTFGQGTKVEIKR

- Kd [2]: 9.8 nM
B18: Anti-HER2_D2 heavy chain comprising the VH region of SEQ ID NO: 68 paired with Anti-HER2_D4 light chain control (SEQ ID NO: 87) (antibody, V domains shown)
VH: B7 VH with L103F
VL: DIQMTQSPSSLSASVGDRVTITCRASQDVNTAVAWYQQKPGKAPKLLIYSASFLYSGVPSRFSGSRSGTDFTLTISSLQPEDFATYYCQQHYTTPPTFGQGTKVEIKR

- binding result [5]: no binding
B20: Anti-HER2_D2 light chain control (SEQ ID NO: 94) paired with Anti-HER2_D4 heavy chain control (SEQ ID NO: 93) (antibody, human IgG1, kappa, V domains shown)
VH: not shown
VL: DIQMTQSPSSLSASVGDRVTITCKASQDVSIGVAWYQQKPGKAPKLLIYSASYRYTGVPSRFSGSGSGTDFTLTISSLQPEDFATYYCQQYYIYPYTFGQGTKVEIKR

Further lines, the binder ahead of its results:

B1: SEQ ID NO: 10 light chain paired with Anti-HER2_D2 heavy chain control (SEQ ID NO: 92) (antibody, human IgG1, kappa, V domains shown)
VH: B7 VH with L103S
VL: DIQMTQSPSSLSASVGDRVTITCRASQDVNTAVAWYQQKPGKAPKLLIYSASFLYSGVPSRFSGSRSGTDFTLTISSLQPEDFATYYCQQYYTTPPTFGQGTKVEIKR
- Kd [1]: 14 nM

B2: Anti-HER2_D2 heavy chain comprising the VH region of SEQ ID NO: 2 paired with Anti-HER2_D4 light chain control (SEQ ID NO: 87) (antibody, V domains shown)
VH: B7 VH
VL: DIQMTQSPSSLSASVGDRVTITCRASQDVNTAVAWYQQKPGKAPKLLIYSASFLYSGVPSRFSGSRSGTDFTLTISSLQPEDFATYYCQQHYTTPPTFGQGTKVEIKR
- Kd [2]: 28 nM

B3: Anti-HER2_D2 heavy chain comprising the VH region of SEQ ID NO: 62 paired with Anti-HER2_D4 light chain control (SEQ ID NO: 87) (antibody, V domains shown)
VH: B7 VH with T28M, L103S
VL: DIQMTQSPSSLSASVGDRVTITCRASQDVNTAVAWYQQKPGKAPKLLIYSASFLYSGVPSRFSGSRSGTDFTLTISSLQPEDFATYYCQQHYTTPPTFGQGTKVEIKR
- Kd [2]: 18.3 nM

B4: Anti-HER2_D2 heavy chain comprising the VH region of SEQ ID NO: 65 paired with Anti-HER2_D4 light chain control (SEQ ID NO: 87) (antibody, V domains shown)
VH: B7 VH with Q62H, L103S
VL: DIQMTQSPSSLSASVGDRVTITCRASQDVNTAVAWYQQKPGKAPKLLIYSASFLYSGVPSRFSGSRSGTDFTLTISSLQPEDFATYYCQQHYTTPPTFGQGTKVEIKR
- Kd [2]: 35 nM

B5: SEQ ID NO: 9 light chain paired with Anti-HER2_D2 heavy chain control (SEQ ID NO: 92) (antibody, human IgG1, kappa, V domains shown)
VH: B7 VH with L103S
VL: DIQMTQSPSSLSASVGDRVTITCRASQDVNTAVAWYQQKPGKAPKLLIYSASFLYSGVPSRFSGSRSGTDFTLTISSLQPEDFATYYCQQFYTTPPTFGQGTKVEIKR
- Kd [1]: 13 nM

B6: Anti-HER2_D2 heavy chain comprising the VH region of SEQ ID NO: 70 paired with Anti-HER2_D4 light chain control (SEQ ID NO: 87) (antibody, V domains shown)
VH: B7 VH with L103Y
VL: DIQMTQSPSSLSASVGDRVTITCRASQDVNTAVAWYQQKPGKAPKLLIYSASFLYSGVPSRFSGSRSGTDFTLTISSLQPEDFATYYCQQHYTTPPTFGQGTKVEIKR
- Kd [2]: 30 nM

B8: Anti-HER2_D2 heavy chain comprising the VH region of SEQ ID NO: 67 paired with Anti-HER2_D4 light chain control (SEQ ID NO: 87) (antibody, V domains shown)
VH: B7 VH with L103W
VL: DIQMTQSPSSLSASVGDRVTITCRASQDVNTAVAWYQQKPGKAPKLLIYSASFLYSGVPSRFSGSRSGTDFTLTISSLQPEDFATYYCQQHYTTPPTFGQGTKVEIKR
- Kd [2]: 6.1 nM

B9: Anti-HER2_D2 heavy chain comprising the VH region of SEQ ID NO: 61 paired with Anti-HER2_D4 light chain control (SEQ ID NO: 87) (antibody, V domains shown)
VH: B7 VH with T28K, L103S
VL: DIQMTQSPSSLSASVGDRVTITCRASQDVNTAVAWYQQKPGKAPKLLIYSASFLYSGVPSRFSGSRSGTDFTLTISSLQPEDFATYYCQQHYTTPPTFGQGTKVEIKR
- Kd [2]: 17.5 nM

B10: Anti-HER2_D2 heavy chain comprising the VH region of SEQ ID NO: 60 paired with Anti-HER2_D4 light chain control (SEQ ID NO: 87) (antibody, V domains shown)
VH: B7 VH with T28N, L103S
VL: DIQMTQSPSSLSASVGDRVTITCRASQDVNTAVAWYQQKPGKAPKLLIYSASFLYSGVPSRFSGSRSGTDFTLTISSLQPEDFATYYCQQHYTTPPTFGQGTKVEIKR
- Kd [2]: 28 nM

B12: SEQ ID NO: 10 light chain paired with anti-HER2_D2 heavy chain comprising the VH region of SEQ ID NO: 1 (antibody, V domains shown)
VH: B7 VH with G57Q, L103S
VL: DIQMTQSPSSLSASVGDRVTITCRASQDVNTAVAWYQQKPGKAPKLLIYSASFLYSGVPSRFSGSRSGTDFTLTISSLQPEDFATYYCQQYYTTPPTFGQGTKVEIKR
- Kd [3]: 4.2 nM

B15: Anti-HER2_D2 heavy chain comprising the VH region of SEQ ID NO: 69 paired with Anti-HER2_D4 light chain control (SEQ ID NO: 87) (antibody, V domains shown)
VH: B7 VH with L103D
VL: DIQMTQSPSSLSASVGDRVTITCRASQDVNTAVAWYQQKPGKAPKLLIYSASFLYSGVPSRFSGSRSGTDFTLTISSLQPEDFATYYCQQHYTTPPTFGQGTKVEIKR
- Kd [2]: 10.2 nM

B16: Anti-HER2_D4 light chain control (SEQ ID NO: 87) paired with Anti-HER2_D2 heavy chain control (SEQ ID NO: 92) (antibody, human IgG1, kappa, V domains shown)
VH: B7 VH with L103S
VL: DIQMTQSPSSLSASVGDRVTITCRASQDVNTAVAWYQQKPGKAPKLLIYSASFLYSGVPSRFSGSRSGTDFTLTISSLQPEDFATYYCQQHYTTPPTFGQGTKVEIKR
- Kd [2]: 42 nM
- Kd [4]: 41 nM

B19: Anti-HER2_D2 heavy chain comprising the VH region of SEQ ID NO: 1 paired with Anti-HER2_D4 light chain control (SEQ ID NO: 87) (antibody, V domains shown)
VH: B7 VH with G57Q, L103S
VL: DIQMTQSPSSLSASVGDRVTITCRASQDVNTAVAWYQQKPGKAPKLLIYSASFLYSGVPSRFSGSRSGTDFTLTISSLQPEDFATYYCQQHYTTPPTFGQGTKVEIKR
- Kd [2]: 28 nM
